Measurements as given in CN115125236A (YEASEN BIOLOGICAL TECH SHANGHAI CO LTD, dated 2022).

T1: Benzonase (粘质沙雷氏菌 (Serratia marcescens), UniProt P13717 22-266)
T1 construct: Coated on the plate in the ELISA and used as the sample in the sandwich ELISA; also called 全能核酸酶; Benzonase蛋白
T1 sequence (looked up): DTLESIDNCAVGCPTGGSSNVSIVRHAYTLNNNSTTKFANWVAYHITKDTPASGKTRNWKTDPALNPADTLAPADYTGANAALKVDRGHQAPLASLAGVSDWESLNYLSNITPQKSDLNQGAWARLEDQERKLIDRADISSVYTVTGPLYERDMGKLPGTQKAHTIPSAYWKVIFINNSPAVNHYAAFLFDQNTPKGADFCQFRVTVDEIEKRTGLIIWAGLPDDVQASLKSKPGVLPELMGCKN

B1: Benzonase单克隆抗体scFv3 (scFv)
scFv: QLVESGGRLVTPGTPLTLTCTASGFALSGYYMTWVRQAPGKGLEWIGITHPSGSTYYASWVKGRFTISKASTTVDLRITSPTTEDTATYFCARVWTHYSSGGGDLWGPGTLVTISSGGGGSGGGGSGGGGSDLTQTPSSVSAAVGGTVTINCQSSESVYKNNDLSWYQQKPGQPPKLLISAASTLASGVPSRFKGSGSGTQFTLTISGVQCDDAATYYCQQGYSGDNVVNTFGGGTEVVVK
B2: Benzonase单克隆抗体scFv6 (scFv)
scFv: QLVESGGDLVKPGASLTLTCTASGFTLSSYWMCWVRQAPGKGLEWIGCIDTGSSDSTYYANWAKGRFTISKASSTTVTLQMTSVTPADTATYFCARHLRYSTNNNDWDLWGPGTLVTVSSGGGGSGGGGSGGGGSDLTQTPASVEAAVGDTVTIKCQASQSIYNYLAWYQQKPGQPPKVLIYAASNLASGVPSRFSGSGSGTQFTLTISGVQCDDAATYYCAGAYSTYGDNGFGGGTEVVVKA
B3: Benzonase单克隆抗体scFv5 (scFv)
scFv: QLMESGGGLVTPGGTLTLTCTASGFSLSNYWMSWVRQAPGKGLEWIGIISNYGSTYYASWAKGRFTISKTSTTVDLRITSPTIEDTATYFCAREFAGVFNLWGPGTLVTVSSGGGGSGGGGSGGGGSDMTQTPASVSEPVGGTVTINCQASQSVYNNKNLAWYQQKPGQPPKVLIYKASTLASGVSSRFKGSGSGTEFTLTISDLECADAATYYCQQGHDTNVQNLFGGGTEVVVKAAAGA
B4: Benzonase单克隆抗体scFv4 (scFv)
scFv: QLMESGGGLVQPGASLTLTCTASGFSFSSNYWICWVRQAPGKGLEWIGCIYTGTSGTTYYASWAKGRFTISETSSTTVTLQMTSLTAADTATYFCSKNTYGYALAARLDLWGQGTLVTISSGGGGSGGGGSGGGGSDMTQTPASVEVAVGGTVTIKCQASQSIGSDLAWYQQKLGQPPKLLIYYASTLESGAPARFSGSGSGTEYTLTITDVQCDDAATYYCAGDYSSGNDNGFGGGTEVVVKA
B5: Benzonase单克隆抗体scFv1 (scFv)
scFv: QLVESGGGLVTPGTPLTLTCTASGFSLSSYWMSWVRQAPGKGLEWIGVISSSGSTDYASWAKGRFTISKTSTTVDLKITSLTTEDTAIYFCARYSSDWNAYDLWGQGTLVTISSGGGGSGGGGSGGGGSVLTQTPSPVSAAVGGTVTISCQASQSVYGNNYLSWFQQKPGQPPKLLIYQASTLASGVPSRFSGSGSGTQFSLTISGVQCDDAATYYCAGWSGSGTDAVAFGGGTELEILGRSGP

Molecular target: T2, 牛血清白蛋白 (牛 (bovine, by its name), UniProt P02769 25-607)
T2 construct: also called BSA
Assay: ELISA, BSA coated and blocked as control, HRP anti-flag-tag detection

T2 sequence (P02769 25-607 limits assumed): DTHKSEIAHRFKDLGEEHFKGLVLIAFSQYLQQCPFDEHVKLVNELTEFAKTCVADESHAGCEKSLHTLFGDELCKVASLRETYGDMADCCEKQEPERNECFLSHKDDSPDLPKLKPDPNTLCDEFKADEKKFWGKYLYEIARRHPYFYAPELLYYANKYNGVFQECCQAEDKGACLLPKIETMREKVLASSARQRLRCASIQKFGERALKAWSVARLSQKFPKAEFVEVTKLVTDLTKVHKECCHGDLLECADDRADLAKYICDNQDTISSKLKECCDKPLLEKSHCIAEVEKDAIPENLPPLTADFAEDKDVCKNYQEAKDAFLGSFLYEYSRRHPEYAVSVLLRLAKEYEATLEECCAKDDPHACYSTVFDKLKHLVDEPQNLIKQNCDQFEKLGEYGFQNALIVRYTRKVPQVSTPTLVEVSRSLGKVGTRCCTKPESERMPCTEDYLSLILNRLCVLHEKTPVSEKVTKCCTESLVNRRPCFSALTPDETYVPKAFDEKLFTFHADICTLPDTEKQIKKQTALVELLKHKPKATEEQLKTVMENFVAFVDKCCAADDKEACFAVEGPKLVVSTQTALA

Does B1 bind?
Result: no binding (tested: 1μg/ml后二倍梯度稀释)

Does B2 bind?
Result: no binding (tested: 1μg/ml后二倍梯度稀释)

Does B3 bind?
Result: no binding (tested: 1μg/ml后二倍梯度稀释)

Does B4 bind?
Result: no binding (tested: 1μg/ml后二倍梯度稀释)

Does B5 bind?
Result: no binding (tested: 1μg/ml后二倍梯度稀释)

Molecular target: T1, Benzonase
Assay: sandwich ELISA, biotin-scFv4 as detection on Benzonase captured by scFv3, HRP-streptavidin

Does B4 bind?
Result: binds

Molecular target: T1, Benzonase
Assay: ELISA, Benzonase coated, scFv from 1 μg/ml in twofold dilutions, HRP anti-flag-tag detection

Does B1 bind?
Result: binds

Does B2 bind?
Result: binds

Does B3 bind?
Result: binds

Does B5 bind?
Result: binds
